T1: recombinant CD147 ECD-Flag construct (construct #3364, human CD147 ECD1-192) (human, UniProt Q865R3 22-192 (bovine entry))
T1 sequence: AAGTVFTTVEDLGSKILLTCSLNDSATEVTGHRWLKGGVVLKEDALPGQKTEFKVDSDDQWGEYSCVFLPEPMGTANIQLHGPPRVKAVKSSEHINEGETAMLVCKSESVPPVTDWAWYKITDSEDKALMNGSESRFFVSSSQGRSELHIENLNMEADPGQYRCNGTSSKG

T2: CD147-FL-ECD (Asp19-192 of SEQ ID NO: 1) (human, UniProt Q865R3 19-192 (bovine entry))
T2 construct: The Asp19 N-terminus is stated for the hexa-His ECD-FL; also called ECD-FL; CD147 ECD
T2 sequence: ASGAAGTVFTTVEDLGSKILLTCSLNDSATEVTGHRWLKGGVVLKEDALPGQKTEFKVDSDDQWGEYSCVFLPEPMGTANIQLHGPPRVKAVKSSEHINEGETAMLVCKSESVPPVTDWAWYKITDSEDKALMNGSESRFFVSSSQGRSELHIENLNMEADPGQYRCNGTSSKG

T3: native human CD147 on MDA-MB-231 breast carcinoma cells (human, UniProt P35613 140-385)
T3 construct: also called EMMPRIN; MDA-MB-231 cells
T3 sequence: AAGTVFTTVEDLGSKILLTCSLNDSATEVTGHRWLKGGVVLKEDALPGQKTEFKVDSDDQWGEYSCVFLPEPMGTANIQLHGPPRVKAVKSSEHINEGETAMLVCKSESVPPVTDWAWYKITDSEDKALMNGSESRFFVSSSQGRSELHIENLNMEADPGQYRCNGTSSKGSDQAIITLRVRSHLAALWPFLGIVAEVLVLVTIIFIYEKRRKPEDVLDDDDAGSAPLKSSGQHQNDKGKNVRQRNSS


Experiments:
[1] = molecular target: T1, recombinant CD147 ECD-Flag construct …; experiment: cell-based or functional assay
[2] = molecular target: T2, CD147-FL-ECD (Asp19-192 of SEQ ID NO: 1); experiment: SPR (Biacore 3000), mAb captured by anti-mouse Fc, CD147-FL-ECD injected
Experimental: Affinity for the CD147 ECD was also measured by surface plasmon resonance (Biacore). Kinetic studies were performed at 25° C. using a BIACORE 3000 (BIAcore, Inc.) surface plasmon resonance (SPR) instrument. Goat anti-mouse Fcy specific antibody (Jackson Immunoresearch laboratories Prod #115-005-071) was covalently attached to carboxymethyl dextran coated gold surfaces (CM-5 Chip, Biacore). The carboxymethyl groups of dextran were activated with N-Ethyl-N′-(3-Dimethylaminopropyl)carbodiimide (EDC) and N-hydroxysuccinimide (NHS). The Ab was attached at pH 4.5 in 10 mM sodium acetate. Any remaining reactive sites on the surface were blocked by reaction with ethanolamine.
For kinetic binding measurements, anti-CD147 mAbs were captured using an anti-mouse Fcy specific antibody at a flow rate of 30 μL/min. Ab capture was followed by injection of CD147-FL-ECD or the N- or C-domain fragments (as described in Example 1) at concentrations between 75 and 300 nM at 60 μL/min. Association data was collected for 2 min followed by 10 min of dissociation. The surface was regenerated with 15 μL of 100 mM H3PO4, followed by 15 μL of 50 mM NaOH at 30 μL/min. All samples were prepared in D-PBS containing 3 mM EDTA and 0.005% surfactant P20. Data reported is the difference in SPR signal between the flow cell containing the captured antibody and a reference cell without captured antibody. Additional instrumental contributions to the signal were removed by subtraction of the data from the blank injection from the reference-subtracted signal. Data were analyzed by fitting association and dissociation phases at all concentrations using the BIAevaluation software (BIAcore, Inc.).

[3] = molecular target: T3, native human CD147 on MDA-MB-231 breast …; experiment: live cell binding assay on MDA-MB-231 cells, HRP-conjugated secondary antibody, OD 490, antibody at 10 ug/ml

MMP-1 IC50 [1] | Kd [2] | binding result [3] | Binder
20 µg/mL | 5 nM | – | 2C8(mIgG1) (antibody, V domains shown, Murine IgG1 from hybridoma; also called C1170A; C1170) VH: EMKLEESGGGLVQPGGSMKLSCVASGFTFSNYRMNWVRQSPEKGLEWVAQIRLKSYNYATHYAESVKGRFTISRDDSKSSVYLQMNNLRAEDTGIYYCTPDGSDYWGQGTTLTVSS VL: DILMTQSPSSMSVSLGDTVSITCHASQGISSSIGWLQQKPGKSFKGLIYHGTNLEDGVPSRFTGSGSGADYSLTISSLESEDFADYYCVQYAQFPYTFGGGTKLEIK
– | 4 nM | – | 5F6(mIgG1) (antibody, V domains shown, Murine IgG1 from hybridoma; Two light chain V-regions were found for 5F6; also called C1171A; 5F6 mAb) VH: EMKLEESGGGLVQPGGSMKLSCVASGFTFSNYWMNWVRQSPEKGLEWVAQIRLKSYNYATHYAESVKGRFTISRDDSKSSVYLQMNNLRAEDTGIYYCTPDGSDYWGQGTTLTVSS VL: SIVMTQTPKFLLVSAGDRVTITCKASQSVSNDVAWYQQKPGQSPKLLIYYASNRYTGVPDRFTGSGYGTDFTFTISTVQAEDLAVYFCQQDYSSPYTFGGGTKLEIK
– | 100 nM | binds | 4A5(mIgG1) (antibody, V domains shown, Murine IgG1 from hybridoma; also called C1177A; 4A5 mAb) VH: EVQLQQSGPELVKPGASVKISCKASGYTFTDYYMNWVKQSHGKSLEWIGGINPNNGGTSYNQKFKGKATLTVDKSSSTAYMELRSLTSEDSAVYYCARNDGYRGYAMDYWGQGTSVTVSS VL: not shown

Source: patent US20140079711A1 (Janssen / Centocor, published 2014)
